The nature of the data set: soluble fraction after stress (log2 fold change); higher = more stays soluble; pooled small domains, quantitative proteomics. Conditions: stress: 75 degC.
With “HMEISLAETLRSSLHMILGWYQNTGDKKLLELIRLHLQAYVNTGNSLNPEMEEIRAALETLGEGKEAFRP”, the “soluble fraction (log2)” value was -2.35.
Then “HMEISNWLEEIGLSRYTETLSEFPLEDLVEFTDDDFKELGVLTPHRKKLLAAIATLNNDASSN”, with -0.245; and “HMEISTEVPLRGGTISEEALEALNRLPGVTASNIDGKSISVDVADNAELRVSDINQVLAVHSPDTRV”, with -0.0403.
Then “HMEITRDTVIQWLEAERRSQTWLSKQLGVSVQAVSNWLREKNPQTISASAQITIRALMEEDAAK”, with -1.11.
To “HMEIVQVIAQNIQDLLDKHKISVSELSGYLGISRQTLTNYLKTTSTIDSVQLVKIADFFNIPAEYLLKDH” belongs -1.5.
On to “HMEIVSTEEKIKRAAEQVFLLRGLEGARMQEIADVAGINKAMLHYYFRNKETLFDVILSEKL”, for which the “soluble fraction (log2)” value is -2.11.
To “HMEIYEEDRTKVVNDLMDQILNRQITMDAAATKFINIRNSLGTTITKEDEQNLEMLRGLIFDKT” belongs 0.2.
To “HMEIYIDGNKYVGELRNGKPNGRGTITYTGDGSKYVGEWKNGKRYGRGKMAYTNGTTKEGVWKDDEFLYAT” belongs 0.181.
Then “HMEKAKVPSVIGMTEANAKRTIRDAGFKVGRVTRVESEAYDKGKVIEQQYEAGSELEKKKPISIVVSKGKK”, with -0.108.
As for “HMEKALEVKYQKMVELLGDQSTFYVDEVKKIFPEMKKSSLYWNMSKLVEGGYLRRIRNGVYAFNE”, the “soluble fraction (log2)” value is -0.401.
To “HMEKEKIKEALIGYFEAEPEEKFTVQELADKLKMNKAGQFNFVVQAVAQLEHDKVITLDDEGNFSLVRHE” belongs 0.176; to “HMEKERYDTGIGELNRVLGGGLVKGSLILISGDPGIGKSTLLLQTANNISKKYGKVLYVSGEESEEQIKIR”, -0.879.
Then “HMEKGWYKLGQDSYYVDDDGKIHKGWLELDGKKYYFDQEGKMVTGTVNIDGKDYTFNEKGELYVS”, with at least 1.04; and “HMEKIELKTVIPENLKKKRLDFALSELFPEHSRSRIQSWIKEGSVMVNSKNYRQRDLVDAGDVVEINTEQK”, with 0.00949; and “HMEKIIGQIQINQRGNGYVIVPNVKDDIFVKRENLNSARQGDRVAVQLLSRPNQKPEGLVQEVLERGQ”, with 0.637.
Then “HMEKILSYKALMNDAGKRIDQFLANNEKDISRTRIKSLILEGSLKLDNNIINDPSYKIKENDVFTLFIPEA”, with -0.482; and “HMEKIRIQKYLSERGVMSRRAADSALAEGRIAVNGVTARPGDKIDPSSDTLTIDGRIVTTGTAP”, with -0.0992.
With “HMEKKEWVIYITGAVKKPGVYRIPEGARVYQALEAAGGFTPEADRDAVNLAAMLQDGAHIKFPAVGEEV”, the “soluble fraction (log2)” value is -0.148.
Then “HMEKLNYSISNEEQGQRIDKYLSLMIEGKSRSFIQGLIDDKKVMANGKVIKSNYKLKNNDEITVEMPDPI”, with -0.0366; and “HMEKNILPDTSPEKQYEFATSFLKVGDYSTAERAFREFVINNSEHKLAGNAQYWYAETFRIRQ”, with 0.261.
To “HMEKSQIHLIHTRYVNPEQLVPILSMVIPAENIYVKSDSNLIIINGSSEMLREVESIVSKLDVPS” belongs -0.255; to “HMEKSSALRAKEAFMALYHDGKFKPGTKIPSESNMAELLGVSRETWRKALALLRGDGVLYSKHGSGTYLLE”, 0.254.
Then “HMEKTKLPNLVDFTYRQAEALLQTHGLKVGKVERVPDVGQTVIKAKYKGKVISWGTELNKGEKIDLVIGKG”, with -0.542.
Take “HMELADLPSAQIREILAYVYRAPLEKRRDPSIHWLLIAAHKLTLPLLDRLDPADARALGERYGADYP”: the “soluble fraction (log2)” value was -0.00148.
To “HMELARLRPELDGNDIMRILGVPPGPVVGRAYTYLLELRINQGELGRERVTQLLLDWAAAEGISA” belongs -2.76.
On to “HMELDMTFGEKIQKLRKESGLSQEELSYQLGVSRQAISKWERDSGYPETEKIVRMSKIFDVTLDYLLNE”, for which the “soluble fraction (log2)” value was -0.582.
Then “HMELEDTYTKNLDASLARLDEYQASKGLTDEQVDEVINSLIADAENIIMGVFTPELIDSKLKAMNYDQDV”, with 0.119; and “HMELEFLTEKQKEALILAVNRGYYDVDSEVTLKRLADELGIARSTYGEHLKRAESEALKMVVSDLLRD”, with -0.556.

Source of the values: the domain aggregation screens of Martell et al. (2025).
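Also: 20 min heating vs room temperature control held 20 min.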
